Test [1] has as its target T1, human CD30/TNFRSF8 on Jurkat human acute T cell leukemia cells (Clone E6-1) (human, UniProt P28908 19-595).
T1 construct: Endogenous CD30 on Jurkat cells; also called hCD30; hCD30/TNFRSF8
T1 sequence: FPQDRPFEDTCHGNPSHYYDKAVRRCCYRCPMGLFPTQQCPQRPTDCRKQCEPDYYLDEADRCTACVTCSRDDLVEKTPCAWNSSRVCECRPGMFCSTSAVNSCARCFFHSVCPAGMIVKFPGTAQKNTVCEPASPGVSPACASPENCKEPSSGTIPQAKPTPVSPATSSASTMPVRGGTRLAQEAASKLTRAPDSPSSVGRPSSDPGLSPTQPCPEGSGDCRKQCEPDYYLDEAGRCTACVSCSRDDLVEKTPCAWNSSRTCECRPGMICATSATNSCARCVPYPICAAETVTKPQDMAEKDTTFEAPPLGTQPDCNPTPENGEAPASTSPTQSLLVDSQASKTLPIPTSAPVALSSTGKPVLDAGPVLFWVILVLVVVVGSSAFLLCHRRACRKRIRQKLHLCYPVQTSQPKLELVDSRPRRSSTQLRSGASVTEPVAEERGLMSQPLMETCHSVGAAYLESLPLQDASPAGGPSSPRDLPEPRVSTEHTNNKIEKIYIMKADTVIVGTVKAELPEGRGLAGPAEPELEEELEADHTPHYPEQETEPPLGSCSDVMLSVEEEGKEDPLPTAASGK
Kind of test: flow cytometry on Jurkat cells, PE anti-mouse IgG secondary. As to the method: Jurkat human acute T cell leukemia cell line (Clone E6-1, ATCC Catalog #TIB-152) was stained with Mouse Anti-Human CD30 Monoclonal Antibody (Clone 81316.11, filled histogram) or isotype control antibody (Catalog #MAB002, open histogram), followed by Phycoerythrin-conjugated Anti-Mouse IgG Secondary Antibody (Catalog #F0102B).
Jurkat cells were harvested and washed two times in 2 mL of 1x flow staining buffer (FC001). The cells were resuspended in 1x flow staining buffer to a concentration of ~1.0×10⁶ cells/mL. About 90 µL of the cell suspension was added to each flow tube. About 10 µL of either 25 µg/mL Msxh CD30 or MsIgG1 was added to the appropriate tube, and the tubes were vortexed and then incubated for 20 minutes at room temperature. Cells were washed two times in 2 mL of 1× flow staining buffer. About 10 µL of goat anti-Mouse IgG PE secondary antibody was added to each tube, vortexed, and then incubated in the dark for 20 minutes at room temperature. Cells were washed two times in 2 mL of 1× flow staining buffer. 100 µL of 2× Sytox Blue Dead Cell Stain (ThermoFisher, S34857) was added and the cells were analyzed by flow cytometry.
A general note: Flow cytometry measures light scatter and fluorescence of single cells or particles in a stream.

Test [2] concerns the target T2, recombinant human CD30 protein (UniProt P28908 19-385).
T2 chain: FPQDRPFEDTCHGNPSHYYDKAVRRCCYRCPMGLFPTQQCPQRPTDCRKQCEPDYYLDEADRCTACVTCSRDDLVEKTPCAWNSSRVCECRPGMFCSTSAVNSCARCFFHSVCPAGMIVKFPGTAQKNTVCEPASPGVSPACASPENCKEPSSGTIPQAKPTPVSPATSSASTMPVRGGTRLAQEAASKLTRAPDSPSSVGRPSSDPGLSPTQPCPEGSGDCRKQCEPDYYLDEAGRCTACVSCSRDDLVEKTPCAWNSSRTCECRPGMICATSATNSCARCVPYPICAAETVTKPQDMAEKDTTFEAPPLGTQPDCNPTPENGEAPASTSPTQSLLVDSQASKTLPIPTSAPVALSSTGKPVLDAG
Description: SPR. A general note: In SPR one partner is held on a chip, and binding of the other changes the refractive index at the surface.

What is called Kd is a measure of binding affinity in units of concentration.

B1: Mouse Anti-Human CD30 Monoclonal Antibody (Clone 81316.11) (antibody, V domains shown)
VH: QVQLKESGPGLVAPSQSLSITCTVSGFSLTSYGVHWVRQPPGKGLEWLGVIWAGETINYNLALMSRLSISKDNSKSQVFLKMNSLQTEDTAMYYCARDQGEYGNYGWYFDVWGAGTTVTVSS
VL: DIQMTQTTSSLSASLGDRVTISCSASQGISNYLNWYQQKPDGTVKLLIYYTSSLHSGVPSRFSGSGSGTDYSLTISNLEPEDIATYYCQHYSKLPPTFGGGTKLEIKR
notes: It is a mouse monoclonal, and the isotype control used beside it is MsIgG1; also called anti-hCD30 antibody; recombinant hCD30 antibody
Regarding B1, the binding result in test [1] was “binds”. For the same molecule, the Kd in test [2] turned out to be 5.1 nM.

The values above are taken from patent US12122842 (R AND D SYSTEMS, dated 2024).
